We go through one molecule from patent publication US20250064929A1 (UPSTREAM BIO, published 2025).

Experiment [1] deals with T1, human TSLP receptor (TSLP-R) (human, UniProt Q9HC73 23-371).
T1 sequence (looked up): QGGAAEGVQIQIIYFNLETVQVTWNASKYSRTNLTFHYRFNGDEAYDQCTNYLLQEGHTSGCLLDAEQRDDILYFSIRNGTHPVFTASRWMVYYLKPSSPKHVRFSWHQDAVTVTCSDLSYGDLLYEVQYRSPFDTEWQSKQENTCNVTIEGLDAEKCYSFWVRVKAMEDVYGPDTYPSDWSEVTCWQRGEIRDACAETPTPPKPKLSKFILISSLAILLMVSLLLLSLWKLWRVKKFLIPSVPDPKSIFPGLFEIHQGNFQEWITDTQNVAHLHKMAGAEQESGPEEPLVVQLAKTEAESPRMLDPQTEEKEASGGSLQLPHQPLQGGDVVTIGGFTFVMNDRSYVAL
Kind of experiment: cell-based or functional assay.

For experiment [2], the target named is T1, human TSLP receptor (TSLP-R). Nature of the experiment: cell-based or functional assay. The source holds these as a separate data set.

B1: TRAB-1 antibody (anti-TSLP-R antibody) (antibody, human IgG1, kappa, V domains shown)
VH: EVQLLESGGGLVQPGGSLRLSCAASGFTFRSSAMHWVRQAPGKGLKWVSSVSGSGAGTYYADSVKGRFTISRDNPKNTLYLQMNSLRAEDTAVYYCVKEGGSRGFDYWGQGTLVTVSS
VL: DIQMTQSPSSLSASVGDRVTITCRASQDISNYLAWFQQKPGKAPKSLIYTASSLQSGVPSKFSGSGSGTDFTLTISSLQPEDFATYYCQQYNLYPPTFGQGTKVEIKR
Regarding B1, in experiment [1], the “IC50 (ng/mL), CCL17 production in dendritic cells” value amounted to 16.1 ng/mL. For the same molecule, the “IC50 (ng/mL), cell proliferation of Ba/F3 cells transfected with human TSLP-R/IL-7Rα” value in experiment [2] came out at 90.7 ng/mL.
